Here are results for three molecules from patent US20230027639A1.

The target of assay [1] is anti-CD19 CAR on CD19 CAR-T cells (the extracellular binding domain of the CAR was FMC63scfv). Kind of assay: flow cytometry on CD19 CAR-T cells; mean ± SD of three parallel experiments.
Assay [2] has the same target. Kind of assay: flow cytometry on CD19 CAR-T cells, Biotinylated Human CD19 Fc Tag detected with PE anti-Biotin; percent CAR-positive cells, replicate 1.
The target is the same in assay [3]. The assay is described as follows: flow cytometry on CD19 CAR-T cells, Biotinylated Human CD19 Fc Tag detected with PE anti-Biotin; percent CAR-positive cells, replicate 2.
The target is the same in assay [4]. The assay is described as follows: flow cytometry on CD19 CAR-T cells, Biotinylated Human CD19 Fc Tag detected with PE anti-Biotin; percent CAR-positive cells, replicate 3.
For assay [5] the target is unchanged. Kind of assay: cell-based or functional assay.
Assay [6] has the same target. The assay is described as follows: flow cytometry on CD19 CAR-T cells, biotin-labelled antibody detected with PE anti-Biotin; percent CAR-positive cells, replicate 1.
For assay [7] the target is unchanged. Kind of assay: flow cytometry on CD19 CAR-T cells, biotin-labelled antibody detected with PE anti-Biotin; percent CAR-positive cells, replicate 2.
Assay [8] shares this target. Kind of assay: flow cytometry on CD19 CAR-T cells, biotin-labelled antibody detected with PE anti-Biotin; percent CAR-positive cells, replicate 3.

As for “Biotinylated Human CD19, Fc Tag (ACROBiosystems, model CD19-H8259) (from UniProt P15391 20-291) (Fc fusion)”, the CAR % (mean of three measurements) in assay [1] turned out to be 14.2%. For the same molecule, the values for the CAR % in assay [2], in assay [3] and in assay [4] were 10.3%, 12.3% and 20.1%, respectively.

B1: monoclonal antibody 3984-mab001-H (scFv)
scFv: EIQLQQSGPELVKPGASVKVSCKASGYSFTDYTMYWVKQSHGKSLEWIGYIDPYNGGTNYSQRFKGKATLTVDKSSSTAFMHLNSLPSEDSAVYYCANTYDNYEFAYWGQGTLVTVSAGGGGSGGGGSGGGGSDIQMTQTTSSLSASLGDRVTISCRASQDISNYLNWYQQKPDGTVKLLIYYTSRLRSGVPSRFSGSGSGADYSLTISNLEQEDIATYFCQQGDTLPYTFGGGTKLEIN
In the case of B1, in assay [5], the killing rate of CD19+K562 cells by CAR-T cells (LDH release), effector:target 1:1, mAb 5 µg/ml (16.0% without mAb) was 16.1%; the killing rate of CD19+K562 cells by CAR-T cells (LDH release), effector:target 1:1, mAb 25 µg/ml (16.0% without mAb) was found to be 6.5%; the killing rate of CD19+K562 cells by CAR-T cells (LDH release), effector:target 5:1, mAb 5 µg/ml (51.5% without mAb) was 39.1%; the killing rate of CD19+K562 cells by CAR-T cells (LDH release), effector:target 5:1, mAb 25 µg/ml (51.5% without mAb) came out at 32.1%.

B2: biotin-labeled monoclonal antibody Bio-3984-mab001-H (scFv)
scFv: EIQLQQSGPELVKPGASVKVSCKASGYSFTDYTMYWVKQSHGKSLEWIGYIDPYNGGTNYSQRFKGKATLTVDKSSSTAFMHLNSLPSEDSAVYYCANTYDNYEFAYWGQGTLVTVSAGGGGSGGGGSGGGGSDIQMTQTTSSLSASLGDRVTISCRASQDISNYLNWYQQKPDGTVKLLIYYTSRLRSGVPSRFSGSGSGADYSLTISNLEQEDIATYFCQQGDTLPYTFGGGTKLEIN
modifications: biotin label (Sulfo-NHS-Biotin); labelled residues not stated
Regarding B2, in assay [1], the CAR % (mean of three measurements) was determined as 47.9%. The CAR % came to 47.9% in assay [6], 48.5% in assay [7] and 47.2% in assay [8].
